The source of these data is US20090305953A1.

“And” between values parts separate entries of the source, which are not always exact repeats. Equal entries are not always repeated.

The target in assay [1] is human α-glycoprotein (human) (UniProt P02763). Put plainly: calculated from ITC Ka; 165 µM antibiotic, 1.5×10^-5 M α-glycoprotein assumed.
In assay [2] the target is N,N′-diacetyl-Lys-D-Ala-D-Ala. Kind of assay: ITC, tri-peptide injected into dalbavancin, 10 °C, no HSA. On the technique in general: ITC needs no label: the signal is the heat of the interaction.
In assay [3] the target is human α-glycoprotein (human) (UniProt P02763). Put plainly: calculated from ITC Ka; 100 µM antibiotic, 1.5×10^-5 M α-glycoprotein assumed.
Assay [4] has as its target human serum albumin (human) (UniProt P02768). Put plainly: calculated from ITC Ka; 1 µM antibiotic, 6×10^-4 M human serum albumin assumed.
The target in assay [5] is human α-glycoprotein (human) (UniProt P02763). Kind of assay: ITC, single-site model.
Assay [6] has as its target rat albumin (rat) (UniProt P02770). Kind of assay: ITC, single-site model.
Assay [7] deals with dog albumin (dog) (UniProt P49822). Put plainly: ITC, single-site model.
Assay [8] addresses bovine albumin (bovine) (UniProt P02769). Kind of assay: ITC, single-site model.
The target of assay [9] is N,N′-diacetyl-Lys-D-Ala-D-Ala. Kind of assay: ITC, tri-peptide injected into dalbavancin, 25 °C, apparent value in the presence of 13.6 µM HSA.
Assay [10] has as its target N,N′-diacetyl-Lys-D-Ala-D-Ala. Kind of assay: ITC, tri-peptide injected into dalbavancin, 25 °C, apparent value in the presence of 34.2 µM HSA.
Assay [11] deals with human serum albumin (human) (UniProt P02768). Put plainly: calculated from ITC Ka; 10 µM antibiotic, 6×10^-4 M human serum albumin assumed.
Assay [12] concerns the target human α-glycoprotein (human) (UniProt P02763). Put plainly: calculated from ITC Ka; 500 µM antibiotic, 1.5×10^-5 M α-glycoprotein assumed.
Assay [13] concerns the target human serum albumin (human) (UniProt P02768). Put plainly: calculated from ITC Ka; 100 µM antibiotic, 6×10^-4 M human serum albumin assumed.
For assay [14] the target is unchanged. Put plainly: calculated from ITC Ka; 250 µM antibiotic, 6×10^-4 M human serum albumin assumed.
For assay [15], the target named is human α-glycoprotein (human) (UniProt P02763). Kind of assay: calculated from ITC Ka; 250 µM antibiotic, 1.5×10^-5 M α-glycoprotein assumed.
In assay [16] the target is N,N′-diacetyl-Lys-D-Ala-D-Ala. Put plainly: ITC, tri-peptide injected into dalbavancin, 25 °C, apparent value in the presence of 80.7 µM HSA.
For assay [17], the target named is human serum albumin (human) (UniProt P02768). Kind of assay: calculated from ITC Ka; 500 µM antibiotic, 6×10^-4 M human serum albumin assumed.
The target in assay [18] is N,N′-diacetyl-Lys-D-Ala-D-Ala. Put plainly: ITC, no HSA.
In assay [19] the target is human α-glycoprotein (human) (UniProt P02763). Put plainly: calculated from ITC Ka; 10 µM antibiotic, 1.5×10^-5 M α-glycoprotein assumed.
The target is the same in assay [20]. Kind of assay: calculated from ITC Ka; 1 µM antibiotic, 1.5×10^-5 M α-glycoprotein assumed.
For assay [21], the target named is human serum albumin (human) (UniProt P02768). Put plainly: calculated from ITC Ka; 165 µM antibiotic, 6×10^-4 M human serum albumin assumed.

Chain of human α-glycoprotein (human) (P02763 19-201): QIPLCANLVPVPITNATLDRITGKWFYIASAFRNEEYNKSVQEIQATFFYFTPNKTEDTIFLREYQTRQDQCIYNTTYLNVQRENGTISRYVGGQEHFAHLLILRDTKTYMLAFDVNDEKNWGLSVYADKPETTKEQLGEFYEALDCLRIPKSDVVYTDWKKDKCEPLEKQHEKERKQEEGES
Chain of bovine albumin (bovine) (P02769 25-607 limits assumed): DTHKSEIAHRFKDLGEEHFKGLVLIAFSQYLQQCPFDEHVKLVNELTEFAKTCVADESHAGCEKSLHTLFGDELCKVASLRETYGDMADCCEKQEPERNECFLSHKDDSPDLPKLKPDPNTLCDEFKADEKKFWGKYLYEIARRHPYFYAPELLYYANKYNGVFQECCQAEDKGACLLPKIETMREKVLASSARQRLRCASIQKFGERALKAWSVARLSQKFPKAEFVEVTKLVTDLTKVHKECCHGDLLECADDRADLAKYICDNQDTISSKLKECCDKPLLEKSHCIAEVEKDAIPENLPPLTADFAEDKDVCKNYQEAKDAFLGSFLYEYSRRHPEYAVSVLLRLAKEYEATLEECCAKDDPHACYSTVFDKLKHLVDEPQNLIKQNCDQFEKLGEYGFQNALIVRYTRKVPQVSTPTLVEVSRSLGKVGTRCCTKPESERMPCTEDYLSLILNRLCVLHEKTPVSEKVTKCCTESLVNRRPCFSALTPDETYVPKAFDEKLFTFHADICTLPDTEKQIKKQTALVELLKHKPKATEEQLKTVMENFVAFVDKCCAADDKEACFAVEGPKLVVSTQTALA
Chain of rat albumin (rat) (P02770 25-608 limits assumed): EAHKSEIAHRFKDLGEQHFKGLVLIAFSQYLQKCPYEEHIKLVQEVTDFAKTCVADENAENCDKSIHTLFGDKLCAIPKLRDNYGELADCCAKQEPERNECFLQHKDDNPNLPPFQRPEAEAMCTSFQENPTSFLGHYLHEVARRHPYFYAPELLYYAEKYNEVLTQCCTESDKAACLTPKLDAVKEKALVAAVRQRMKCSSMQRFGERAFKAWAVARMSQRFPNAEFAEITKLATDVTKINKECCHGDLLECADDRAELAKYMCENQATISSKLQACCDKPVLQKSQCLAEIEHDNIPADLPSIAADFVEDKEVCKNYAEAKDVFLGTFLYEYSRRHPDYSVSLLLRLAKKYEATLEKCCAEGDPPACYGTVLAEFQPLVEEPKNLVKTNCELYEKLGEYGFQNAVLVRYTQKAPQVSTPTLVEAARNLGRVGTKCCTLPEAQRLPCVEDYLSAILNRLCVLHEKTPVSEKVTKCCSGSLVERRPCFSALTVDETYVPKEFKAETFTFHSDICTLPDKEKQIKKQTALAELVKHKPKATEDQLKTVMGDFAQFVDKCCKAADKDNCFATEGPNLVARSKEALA
Chain of dog albumin (dog) (P49822 25-608 limits assumed): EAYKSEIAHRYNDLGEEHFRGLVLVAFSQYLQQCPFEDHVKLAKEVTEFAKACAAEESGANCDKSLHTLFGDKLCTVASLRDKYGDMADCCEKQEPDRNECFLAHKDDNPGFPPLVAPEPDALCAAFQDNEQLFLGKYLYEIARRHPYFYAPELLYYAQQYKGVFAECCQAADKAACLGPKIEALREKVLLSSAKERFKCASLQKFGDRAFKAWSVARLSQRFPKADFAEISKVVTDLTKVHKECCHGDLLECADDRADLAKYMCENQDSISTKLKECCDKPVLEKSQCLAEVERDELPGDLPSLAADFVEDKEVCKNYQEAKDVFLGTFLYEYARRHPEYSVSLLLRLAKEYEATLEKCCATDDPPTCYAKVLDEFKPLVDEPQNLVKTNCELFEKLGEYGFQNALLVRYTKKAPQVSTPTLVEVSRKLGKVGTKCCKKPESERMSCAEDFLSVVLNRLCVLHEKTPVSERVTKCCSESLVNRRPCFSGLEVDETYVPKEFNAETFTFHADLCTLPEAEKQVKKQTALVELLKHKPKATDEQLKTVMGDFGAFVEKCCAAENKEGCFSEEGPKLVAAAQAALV

Take dalbavancin (peptide): the calculated percent binding is 16.9% in [1]; 26.2% in assay [3]; 98.8% in assay [4]; 98.8% in assay [11]; 5.9% in [12]; 98.7% in [13]. Further, the calculated percent binding in assay [14] is 98.5%; in [15], 11.4%; in assay [17], 98%; in assay [19] it was 68.2%; in assay [20], 73%; in [21], 98.6%. Besides, the N in [2] was 0.59 and 0.56; in [9], 0.35 and 0.37; in [10], 0.68; in assay [16], 0.83; in assay [18] it was 0.5. In addition, the N (binding stoichiometry, protein per dalbavancin) in [5], in [6], in assay [7] and in assay [8] was under 1 throughout.

As for teicoplanin (peptide), the calculated percent binding is 6% in assay [3]; 98.3% in assay [4]; 98.3% in [11]; 98% in assay [13]; 9.1% in [19]; 9.6% in assay [20].
